Measurements reported in patent US7951530B2, “Cyclic maltosylmaltose, cyclic maltosymaltose-forming enzyme, their preparation and uses” (Kabushiki Kaisha Hayashibara Seibutsu Kagaku Kenkyujo, priority 2003, dated 2011).

Columns and labels:
CMM-forming enzyme = experiment: Action on various saccharides (substrate specificity, TLC); assay type: biochemical, Arthrobacter globiformis M6; parameters: key: “−” means “Not changed”; “+” means “Spot of substrate is slightly decreased and other products are detected”; “++” means “Spot of substrate is markedly decreased and other products are detected”; “+++” means “Spot of substrate is virtually disappeared and other products are detected”; details: substrate 2% (w/v), one unit/g-substrate enzyme, 40° C., pH 6.0, 24 hours, TLC before and after reaction
Experimental: Substrate specificity of CMM-forming enzyme of the present invention was investigated using various saccharides as substrates. Substrate solutions were prepared by dissolving maltose, maltotriose, maltotetraose, maltopentaose, maltohexaose, maltoheptaose, neotrehalose, trehalose, kojibiose, nigerose, […] isomaltose, isomaltotriose, panose, isopanose, maltitol, maltotriitol, α-, β- or γ-cyclodextrin, amylose, soluble starch, glycogen, pullulan or dextran into water. Each substrate solution was admixed with acetate buffer (pH 6.0) and CaCl2 to give final concentrations of 20 mM and 1 mM, respectively. […] Substrate concentration was set to 2% (w/v) and followed by the enzyme reaction at 40° C. and pH 6.0 for 24 hours. Action and the specificity of the enzyme on these saccharides were confirmed by analyzing the reaction mixture before and after the reaction by TLC described in Experiment 1.

Salivary α-amylase = molecular target: T1, Salivary α-amylase (Homo sapiens, UniProt P0DUB6); experiment: Digestibility by salivary α-amylase
T1 sequence (P0DUB6 16-511): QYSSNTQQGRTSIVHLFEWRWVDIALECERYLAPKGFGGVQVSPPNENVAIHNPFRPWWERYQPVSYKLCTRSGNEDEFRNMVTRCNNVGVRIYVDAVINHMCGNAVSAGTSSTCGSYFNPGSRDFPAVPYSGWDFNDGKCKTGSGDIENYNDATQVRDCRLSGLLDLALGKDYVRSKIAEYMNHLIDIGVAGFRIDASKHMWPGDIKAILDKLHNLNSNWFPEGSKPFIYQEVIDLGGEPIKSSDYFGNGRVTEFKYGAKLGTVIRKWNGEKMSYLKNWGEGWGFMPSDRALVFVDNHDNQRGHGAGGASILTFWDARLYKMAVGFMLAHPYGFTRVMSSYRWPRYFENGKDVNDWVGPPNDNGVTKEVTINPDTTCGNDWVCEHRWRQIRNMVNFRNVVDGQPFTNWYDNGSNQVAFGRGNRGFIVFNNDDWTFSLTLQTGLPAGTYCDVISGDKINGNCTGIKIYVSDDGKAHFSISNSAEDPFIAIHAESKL
Text: (§1) 43, 23-29 (1990), the digestibility of CMM by salivary α-amylase, artificial gastric juice, pancreas amylase, and small intestinal enzymes were investigated using the powdery hydrous crystalline CMM, obtained by the method in Experiment 14.

Pancreas α-amylase = experiment: Digestibility by pancreas α-amylase
Text: as §1

[1] = Digestibility by artificial gastric juice
Text: as §1

Small intestinal enzymes = experiment: Digestibility by small intestinal enzymes
Text: as §1

[2] = Isoelectric point of CMM-forming enzyme; assay type: physicochemical, Arthrobacter globiformis M6
Experimental: The purified enzyme preparation of CMM-forming enzyme, obtained by the method in Experiment 4, was subjected to polyacrylamide gel isoelectrofocusing containing 2% (w/v) “AMPHOLINE”, a carrier ampholyte commercialized by Amersham Biosciences, Tokyo, Japan and isoelectric point of CMM-forming enzyme was measured compare with isoelectric point markers, commercialized by Amersham Biosciences, Tokyo, Japan.

[3] = Optimum temperature and optimum pH of the enzyme reaction; assay type: biochemical, Arthrobacter globiformis M6
Experimental: The enzyme activity of CMM-forming enzyme of the present invention can be assayed as follows: A substrate solution is prepared by dissolving soluble starch in 50 mM acetate buffer (pH 6.0) containing 2 mM CaCl2 to give a concentration of 2% (w/v). A half milliliter of an enzyme solution is added to 0.5 ml of the substrate solution, and the mixture solution is incubated at 40° C. for 30 min. After stopping the reaction by heating at about 100° C. for 10 min, the reaction mixture is admixed with 4,000 units/g-solid of α-glucosidase and 250 units/g-solid of glucoamylase to hydrolyze remaining soluble starch and by-products, oligosaccharides, and followed by the enzyme treatment at 50° C. for 1 hour. The amount of CMM contained in the treated mixture is determined by HPLC described later in Experiment 1. One unit activity of CMM-forming enzyme is defined as the amount of enzyme which forms one μmole of CMM per minute under the above conditions.
The results are in FIG. 5 (Optimum temperature) and in FIG. 6 (Optimum pH), respectively.

[4] = recombinant enzyme purified from transformant BMB1

In the case of `OC[C@@H](O)[C@@H](O[C@H]1O[C@H](CO)[C@@H](O)[C@H](O)[C@H]1O)[C@H](O)[C@@H](O)CO` [Maltitol, maltitol], the Action (CMM-forming enzyme) is reported as “−”, the “Degradation rate (%)” value (Salivary α-amylase) is reported as 0% and the “Degradation rate (%)” value (Pancreas α-amylase) is reported as 0%. The “Degradation rate (%)” value [1] was 0% and the “Degradation rate (%)” value (Small intestinal enzymes) was 4%.

B1: CMM-forming enzyme: enzyme from Arthrobacter globiformis M6 acting on α-1,4 glucans of polymerization degree 3 or higher to form CMM; SEQ ID NO:2 (protein, listed as Arthrobacter globiformis)
chain: DPTTSPGPLAEGDVIYQVLVDRFEDGDPTNNDQGDGEYDPSDLGFYHGGDWAGLTDRLDYIADLGVTAIWLSPVSEQQPLSRDGLEASYHGYFTRDFATPNEHFGDRAELQELIDTAHDLGLKMILDVVPNHTADYLAGTSTTYSPSTYKPASPLDDASYFHHAGDCLFNGLETQTQIENCDLGGLDDLDQSNPVVSSHLMSTYKDWVDMGFDGIRVDAARSVPKPWLADFEAEMGVPTFGEVFVGDVDYVSEYQDYEWGVLDFPYFFTVREAFSADTDMNKLGDLFDQDSKYANPNRLETFLDNHDRARFLTWADDNYQRLRSGLTFLLTSRGVPVIYYGTEQADDGNGNPYEVPIANKDNRKDMESFDQNSNLYKHIQRLTAIKAAYPALQVGTQREMWSDTSVYGFSRRVDSTGAEAMTFSSNSWTTQTRTVPLRAESSITVGTTLTNLMNTGDTVTVTAGGVTGKQITVSLGEHESKVYAPGTPVSAYSPEARNTTKIRVHYNVGLGHSIAIRGDEYPFTWTSGRGARNVASDVWEFEVERIPDGETFQFKPLIDDVTWSTGGNFTGTGGDVIDIYPTF
For B1, the “isoelectric point (pI)” value ([2]; purified enzyme from Arthrobacter globiformis M6, polyacrylamide gel isoelectrofocusing) was 3.6±0.5, the isoelectric point [2, 4] was “about 3.6±0.5” and the “optimum pH” value ([3]; purified enzyme from M6, reacted at 40° C. for 30 min) was 5.5 to 6.5. The optimum temperature ([3]; purified enzyme from M6, reacted at pH 6.0 for 30 min) was 50 to 55 °C, the “optimum pH” value [3, 4] was 5.5 to 6.5 and the “optimum temperature of CMM-forming enzyme activity” value [3, 4] was 50 to 55 °C.
